From the supplement of paper PMC5998384

Columns and labels:
HeLa Kyoto [1] = assay: solubility change mitosis vs G1/S (difference of NP-40 vs SDS log2 ratios) (log2 ratio difference); higher = more soluble in mitosis
HeLa Kyoto [2] = assay: solubility in G1/S (NP-40 vs SDS abundance) (log2 ratio); higher = more soluble; conditions: cell cycle stage: G1/S
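For solubility change mitosis vs G1/S (difference of NP-40 vs SDS log2 ratios) in this document: synchronized HeLa Kyoto cells (double thymidine block for G1/S, nocodazole release for mitosis), protein amounts in NP-40 versus SDS lysates quantified by mass spectrometry, three biological replicates.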
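For solubility in G1/S (NP-40 vs SDS abundance) in this document: HeLa Kyoto cells arrested at G1/S by double thymidine block, proteins quantified by TMT10plex mass spectrometry in mild NP-40 versus SDS extracts, three biological replicates.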

Sequence	solubility change mitosis (log2) (HeLa Kyoto [1])	solubility in G1/S (log2) (HeLa Kyoto [2])
MEVEDSGGVVLTAYHSYARAQPPNAESRCAPRAAASHPLSRKSIPRCRRINRMLSNESLHPPAFSRSNSEASVDSASMEDFWREIESIKDSSMGGQEEPPPAEVTPVDEGELEAEWLQDVGLSTLISGDEEEDGKALLSTLTRTQAAAVQKRYHTYTQTMRKKDKQSIRDVRDIFGVSESPPRDTCGNHTNQLDGTKEERELPRVIKTSGSMPDDASLNSTTLSDASQDKEGSFAVPRSDSVAILETIPVLPVHSNGSPEPGQPVQNAISDDDFLEKNIPPEAEELSFEVSYSEMVTEALKRNKLKKSEIKKEDYVLTKFNVQKTRFGLTEAGDLSAEDMKKIRHLSLIELTAFFDAFGIQLKRNKTEKVKGRDNGIFGVPLTVLLDGDRKKDPGVKVPLVLQKFFEKVEESGLESEGIFRLSGCTAKVKQYREELDAKFNADKFKWDKMCHREAAVMLKAFFRELPTSLFPVEYIPAFISLMERGPHVKVQFQALHLMVMALPDANRDAAQALMTFFNKVIANESKNRMSLWNISTVMAPNLFFSRSKHSDYEELLLANTAAHIIRLMLKYQKILWKVPSFLITQVRRMNEATMLLKKQLPSVRKLLRRKTLERETASPKTSKVLQKSPSARRMSDVPEGVIRVHAPLLSKVSMAIQLNNQTKAKDILAKFQYENSHGSSECIKIQNQRLYEIGGNIGEHCLDPDAYILDVYRINPQAEWVIKPQQSS [ARHGAP28]	0.00445	0.167
MVPGARGGGALARAAGRGLLALLLAVSAPLRLQAEELGDGCGHLVTYQDSGTMTSKNYPGTYPNHTVCEKTITVPKGKRLILRLGDLDIESQTCASDYLLFTSSSDQYGPYCGSMTVPKELLLNTSEVTVRFESGSHISGRGFLLTYASSDHPDLITCLERASHYLKTEYSKFCPAGCRDVAGDISGNMVDGYRDTSLLCKAAIHAGIIADELGGQISVLQRKGISRYEGILANGVLSRDGSLSDKRFLFTSNGCSRSLSFEPDGQIRASSSWQSVNESGDQVHWSPGQARLQDQGPSWASGDSSNNHKPREWLEIDLGEKKKITGIRTTGSTQSNFNFYVKSFVMNFKNNNSKWKTYKGIVNNEEKVFQGNSNFRDPVQNNFIPPIVARYVRVVPQTWHQRIALKVELIGCQITQGNDSLVWRKTSQSTSVSTKKEDETITRPIPSEETSTGINITTVAIPLVLLVVLVFAGMGIFAAFRKKKKKGSPYGSAEAQKTDCWKQIKYPFARHQSAEFTISYDNEKEMTQKLDLITSDMADYQQPLMIGTGTVTRKGSTFRPMDTDAEEAGVSTDAGGHYDCPQRAGRHEYALPLAPPEPEYATPIVERHVLRAHTFSAQSGYRVPGPQPGHKHSLSSGGFSPVAGVGAQDGDYQRPHSAQPADRGYDRPKAVSALATESGHPDSQKPPTHPGTSDSYSAPRDCLTPLNQTAMTALL [DCBLD1]	-0.0211	0.0249
MRFMTLLFLTALAGALVCAYDPEAASAPGSGNPCHEASAAQKENAGEDPGLARQAPKPRKQRSSLLEKGLDGAKKAVGGLGKLGKDAVEDLESVGKGAVHDVKDVLDSVL [DCD]	1.24	-1.49
MAEPLLRKTFSRLRGREKLPRKKSDAKERGHPAQRPEPSPPEPEPQAPEGSQAGAEGPSSPEASRSPARGAYLQSLEPSSRRWVLGGAKPAEDTSLGPGVPGTGEPAGEIWYNPIPEEDPRPPAPEPPGPQPGSAESEGLAPQGAAPASPPTKASRTKSPGPARRLSIKMKKLPELRRRLSLRGPRAGRERERAAPAGSVISRYHLDSSVGGPGPAAGPGGTRSPRAGYLSDGDSPERPAGPPSPTSFRPYEVGPAARAPPAALWGRLSLHLYGLGGLRPAPGATPRDLCCLLQVDGEARARTGPLRGGPDFLRLDHTFHLELEAARLLRALVLAWDPGVRRHRPCAQGTVLLPTVFRGCQAQQLAVRLEPQGLLYAKLTLSEQQEAPATAEPRVFGLPLPLLVERERPPGQVPLIIQKCVGQIERRGLRVVGLYRLCGSAAVKKELRDAFERDSAAVCLSEDLYPDINVITGILKDYLRELPTPLITQPLYKVVLEAMARDPPNRVPPTTEGTRGLLSCLPDVERATLTLLLDHLRLVSSFHAYNRMTPQNLAVCFGPVLLPARQAPTRPRARSSGPGLASAVDFKHHIEVLHYLLQSWPDPRLPRQSPDVAPYLRPKRQPPLHLPLADPEVVTRPRGRGGPESPPSNRYAGDWSVCGRDFLPCGRDFLSGPDYDHVTGSDSEDEDEEVGEPRVTGDFEDDFDAPFNPHLNLKDFDALILDLERELSKQINVCL [SYDE1]	0.106	0.269
MAHLGPTPPPHSLNYKSEDRLSEQDWPAYFKVPCCGVDTSQIESEEAEVDVRERETQRDREPKRARDLTLRDSCTDNSMQFGTRTTTAEPGFMGTWQNADTNLLFRMSQQAIRCTLVNCTCECFQPGKINLRTCDQCKHGWVAHALDKLSTQHLYHPTQVEIVQSNVVFDISSLMLYGTQAVPVRLKILLDRLFSVLKQEEVLHILHGLGWTLRDYVRGYILQDAAGKVLDRWAIMSREEEIITLQQFLRFGETKSIVELMAIQEKEGQAVAVPSSKTDSDIRTFIESNNRTRSPSLLAHLENSNPSSIHHFENIPNSLAFLLPFQYINPVSAPLLGLPPNGLLLEQPGLRLREPSLSTQNEYNESSESEVSPTPYKNDQTPNRNALTSITNVEPKTEPACVSPIQNSAPVSDLTKTEHPKSSFRIHRMRRMGSASRKGRVFCNACGKTFYDKGTLKIHYNAVHLKIKHRCTIEGCNMVFSSLRSRNRHSANPNPRLHMPMLRNNRDKDLIRATSGAATPVIASTKSNLALTSPGRPPMGFTTPPLDPVLQNPLPSQLVFSGLKTVQPVPPFYRSLLTPGEMVSPPTSLPTSPIIPTSGTIEQHPPPPSEPVVPAVMMATHEPSADLAPKKKPRKSSMPVKIEKEIIDTADEFDDEDDDPNDGGAVVNDMSHDNHCHSQEEMSPGMSVKDFSKHNRTRCISRTEIRRADSMTSEDQEPERDYENESESSEPKLGEESMEGDEHIHSEVSEKVLMNSERPDENHSEPSHQDVIKVKEEFTDPTYDMFYMSQYGLYNGGGASMAALHESFTSSLNYGSPQKFSPEGDLCSSPDPKICYVCKKSFKSSYSVKLHYRNVHLKEMHVCTVAGCNAAFPSRRSRDRHSANINLHRKLLTKELDDMGLDSSQPSLSKDLRDEFLVKIYGAQHPMGLDVREDASSPAGTEDSHLNGYGRGMAEDYMVLDLSTTSSLQSSSSIHSSRESDAGSDEGILLDDIDGASDSGESAHKAEAPALPGSLGAEVSGSLMFSSLSGSNGGIMCNICHKMYSNKGTLRVHYKTVHLREMHKCKVPGCNMMFSSVRSRNRHSQNPNLHKNIPFTSVD [BNC2]	0.235	-0.628
MFRLLSWSLGRGFLRAAGRRCRGCSARLLPGLAGGPGPEVQVPPSRVAPHGRGPGLLPLLAALAWFSRPAAAEEEEQQGADGAAAEDGADEAEAEIIQLLKRAKLSIMKDEPEEAELILHDALRLAYQTDNKKAITYTYDLMANLAFIRGQLENAEQLFKATMSYLLGGGMKQEDNAIIEISLKLASIYAAQNRQEFAVAGYEFCISTLEEKIEREKELAEDIMSVEEKANTHLLLGMCLDACARYLLFSKQPSQAQRMYEKALQISEEIQGERHPQTIVLMSDLATTLDAQGRFDEAYIYMQRASDLARQINHPELHMVLSNLAAVLMHRERYTQAKEIYQEALKQAKLKKDEISVQHIREELAELSKKSRPLTNSVKL [TTC19]	0.00456	0.331
MSFLFSSRSSKTFKPKKNIPEGSHQYELLKHAEATLGSGNLRQAVMLPEGEDLNEWIAVNTVDFFNQINMLYGTITEFCTEASCPVMSAGPRYEYHWADGTNIKKPIKCSAPKYIDYLMTWVQDQLDDETLFPSKIGVPFPKNFMSVAKTILKRLFRVYAHIYHQHFDSVMQLQEEAHLNTSFKHFIFFVQEFNLIDRRELAPLQELIEKLGSKDR [MOB1A]	-0.11	0.448
MPLTGVGPGSCRRQIIRALCLLLLLLHAGSAKNIWKRALPARLAEKSRAEEAGAPGGPRQPRADRCPPPPRTLPPGACQAARCQADSECPRHRRCCYNGCAYACLEAVPPPPVLDWLVQPKPRWLGGNGWLLDGPEEVLQAEACSTTEDGAEPLLCPSGYECHILSPGDVAEGIPNRGQCVKQRRQADGRILRHKLYKEYPEGDSKNVAEPGRGQQKHFQ [WFDC1]	0.522	0.101
MDFSFSFMQGIMGNTIQQPPQLIDSANIRQEDAFDNNSDIAEDGGQTPYEATLQQGFQYPATTEDLPPLTNGYPSSISVYETQTKYQSYNQYPNGSANGFGAVRNFSPTDYYHSEIPNTRPHEILEKPSPPQPPPPPSVPQTVIPKKTGSPEIKLKITKTIQNGRELFESSLCGDLLNEVQASEHTKSKHESRKEKRKKSNKHDSSRSEERKSHKIPKLEPEEQNRPNERVDTVSEKPREEPVLKEEAPVQPILSSVPTTEVSTGVKFQVGDLVWSKVGTYPWWPCMVSSDPQLEVHTKINTRGAREYHVQFFSNQPERAWVHEKRVREYKGHKQYEELLAEATKQASNHSEKQKIRKPRPQRERAQWDIGIAHAEKALKMTREERIEQYTFIYIDKQPEEALSQAKKSVASKTEVKKTRRPRSVLNTQPEQTNAGEVASSLSSTEIRRHSQRRHTSAEEEEPPPVKIAWKTAAARKSLPASITMHKGSLDLQKCNMSPVVKIEQVFALQNATGDGKFIDQFVYSTKGIGNKTEISVRGQDRLIISTPNQRNEKPTQSVSSPEATSGSTGSVEKKQQRRSIRTRSESEKSTEVVPKKKIKKEQVETVPQATVKTGLQKGASEISDSCKPLKKRSRASTDVEMTSSAYRDTSDSDSRGLSDLQVGFGKQVDSPSATADADVSDVQSMDSSLSRRGTGMSKKDTVCQICESSGDSLIPCEGECCKHFHLECLGLASLPDSKFICMECKTGQHPCFSCKVSGKDVKRCSVGACGKFYHEACVRKFPTAIFESKGFRCPQHCCSACSMEKDIHKASKGRMMRCLRCPVAYHSGDACIAAGSMLVSSYILICSNHSKRSSNSSAVNVGFCFVCARGLIVQDHSDPMFSSYAYKSHYLLNESNRAELMKLPMIPSSSASKKKCEKGGRLLCCESCPASFHPECLSIEMPEGCWNCNDCKAGKKLHYKQIVWVKLGNYRWWPAEICNPRSVPLNIQGLKHDLGDFPVFFFGSHDYYWVHQGRVFPYVEGDKSFAEGQTSINKTFKKALEEAAKRFQELKAQRESKEALEIEKNSRKPPPYKHIKANKVIGKVQIQVADLSEIPRCNCKPADENPCGLESECLNRMLQYECHPQVCPAGDRCQNQCFTKRLYPDAEIIKTERRGWGLRTKRSIKKGEFVNEYVGELIDEEECRLRIKRAHENSVTNFYMLTVTKDRIIDAGPKGNYSRFMNHSCNPNCETQKWTVNGDVRVGLFALCDIPAGMELTFNYNLDCLGNGRTECHCGADNCSGFLGVRPKSACASTNEEKAKNAKLKQKRRKIKTEPKQMHEDYCFQCGDGGELVMCDKKDCPKAYHLLCLNLTQPPYGKWECPWHQCDECSSAAVSFCEFCPHSFCKDHEKGALVPSALEGRLCCSEHDPMAPVSPEYWSKIKCKWESQDHGEEVKE [WHSC1L1]	0.362	-0.563
